Literature values in PMC7514057.

Molecular target: ArkA peptide (Ark1p) Lys(3) to Lys(-8) (Saccharomyces cerevisiae) (UniProt P53974)

Kd: 1700 nM
Substance: Abp1p SH3 (from UniProt P15891)
